Results taken from patent US20090104231A1.

Legend:
[1] = target: NS3 CD4 peptide … presented by MHC of C57B1 mice (Hepatitis C virus)
[2] = target: NS3 CD8 peptide … presented by MHC of C57B1 mice (Hepatitis C virus)
[3] = target: purified HCV NS3 protein (genotype 1b) from Mikrogen (Hepatitis C virus genotype 1b)
[4] = target: NS5B CD4 peptide … presented by MHC of C57BL/6 mice (Hepatitis C virus)
[5] = target: purified HCV NS5B protein (genotype 1b) from Mikrogen (Hepatitis C virus genotype 1b)
[6] = target: NS5B CD8 peptide … presented by MHC of C57BL/6 mice (Hepatitis C virus)
[7] = target: purified HCV NS4 protein (genotype 1b) from Mikrogen (Hepatitis C virus genotype 1b)
[8] = target: NS4B CD4 peptide … presented by MHC of Balb/c mice (Hepatitis C virus)
[9] = target: NS4B CD8 peptide … presented by MHC of Balb/c mice (Hepatitis C virus)
[10] = target: NS3 CD4 peptide … presented by MHC of C57B1 mice (Hepatitis C virus); remark: listed apart in the source
[11] = target: NS3 CD8 peptide … presented by MHC of C57B1 mice (Hepatitis C virus); remark: listed apart in the source
[12] = target: NS3 CD4 peptide … presented by MHC of C57B1 mice (Hepatitis C virus); remark: listed apart in the source
[13] = target: NS3 CD8 peptide … presented by MHC of C57B1 mice (Hepatitis C virus); remark: listed apart in the source

Substance | IFNγ-producing T cells, intracellular cytokine staining (frequency (unit not given)) [1] | IFNγ-producing T cells, intracellular cytokine staining (frequency (unit not given)) [2] | IFNγ-producing T cells, intracellular cytokine staining (frequency (unit not given)) [3] | IFNγ-producing T cells, intracellular cytokine staining (frequency (unit not given)) [4] | IFNγ-producing T cells, intracellular cytokine staining (frequency (unit not given)) [5] | IFNγ-producing T cells, intracellular cytokine staining (frequency (unit not given)) [6] | IFNγ-producing T cells, intracellular cytokine staining (frequency (unit not given)) [7] | IFNγ-producing T cells, intracellular cytokine staining (frequency (unit not given)) [8] | IFNγ-producing T cells, intracellular cytokine staining (frequency (unit not given)) [9] | intracellular cytokine staining of IFNγ and IL2 (fold over the Core 191 group) [10] | intracellular cytokine staining of IFNγ and IL2 (fold over the Core 191 group) [11] | intracellular cytokine staining (fold over the Core 191 group) [12] | intracellular cytokine staining (fold over the Core 191 group) [13] | IFNγ-producing T cells, intracellular cytokine staining (% of CD8+ cells (unit from paragraph 162)) [2]
splenocytes of C57BL mice immunised with DNA encoding polyprotein HCV 501 (Core (66-191)-(1-65)-NS3-NS4B-NS5B) (cells without a defined receptor) | 0.08 | 0.16 | 0.05 | 0.13 | 0.03 | 0.09 | 0.09 | 0.06 | 0.13 |  |  |  |  | 
T cells of C57BL mice immunised with gold beads co-coated with p7313ieNS3, p7313ieNS5B and p7313ieCore151 (cells without a defined receptor) |  |  |  |  |  |  |  |  |  | 2 | 2 |  |  | 
T cells of C57BL mice immunised with gold beads co-coated with p7313ieNS3/NS4B/NS5B triple fusion together with core 151 (cells without a defined receptor) |  |  |  |  |  |  |  |  |  |  |  | 2 | 2 | 
splenocytes of C57BL mice immunised with DNA encoding NS3 alone (cells without a defined receptor) | 0.24 |  | 0.29 |  |  |  |  |  |  |  |  |  |  | 4.4
splenocytes of C57BL mice immunised with DNA encoding polyprotein HCV 530 (NS5B-Core-NS3-NS4B) (cells without a defined receptor) | 0.21 |  | 0.15 | 0.7 | 0.06 | 0.12 | 0.17 | 0.1 | 0.37 |  |  |  |  | 4.89
splenocytes of mice immunised with DNA encoding NS5B as single antigen (cells without a defined receptor) |  |  |  | 0.26 | 0.1 | 1.67 |  |  |  |  |  |  |  | 
splenocytes of C57BL mice immunised with DNA encoding polyprotein HCV 510 (NS3-NS4B-NS5B-Core) (cells without a defined receptor) | 0.29 |  | 0.17 | 0.29 | 0.1 | 0.11 | 0.09 | 0.09 | 0.34 |  |  |  |  | 3.95
splenocytes of C57BL mice immunised with DNA encoding polyprotein HCV 500 (Core-NS3-NS4B-NS5B) (cells without a defined receptor) | 0.38 |  | 0.27 | 0.43 | 0.14 | 0.35 | 0.09 | 0.1 | 0.6 |  |  |  |  | 5.54
splenocytes of C57BL mice immunised with DNA encoding polyprotein HCV 520 (NS4B-NS5B-Core-NS3) (cells without a defined receptor) | 0.28 |  | 0.14 | 0.18 | 0.09 | 0.08 | 0.08 | 0.05 | 0.33 |  |  |  |  | 3.32
splenocytes of mice immunised with DNA encoding NS4B as single antigen (cells without a defined receptor) |  |  |  |  |  |  | 0.17 | 0.18 | 2.04 |  |  |  |  | 
